This series is described as follows: label from the status in PepcDB records.
As for “ACEQNEDWVVNEPMQSFEENPEYAPLNTIPDWVSEKVTPKEYELWRTMSSRYEINYSFLKKDISEKRKKEIYDCINNICERIEKGQINKYEGFLNIADEDGTTLSDSQYFGRIATRSPEGGAEYKTNGCTLYTHSLGPYIKAAVTYKKSDDDVTITSSSVYTGSPYLGNDPSFSGASSVSYDKDKKLIAASCSGTLSFKDGSRKVEVTVQKTGFMIP”, the protein production entry is on record as “not failed”. Then “DKLDLSPIDYYGSGSYWKTEAQATAYIDGIHKHLRDAAWQHTITFGELRGGRFITGASSDGMGVSNGDIILQNFDETHTGVSKFGDLFGRITNLNLFIARVTDATYLSDEMKNFYLGEVYGLRAFYYFDLYRIYGGVPLRLTADVVEGVIDPNKLYMARSTPKEVMTQIKSDLNKSMEYFGNMNDFDPYKRGKKVYWSKAATECLMGEVYLWTSKVTTGDDVANPADLTIAKTHLESVLNNYNLKMLDDFSQVFNAKNKANDEIIFAIRFLEGEATNSNGTFTYNVGTGSTKNRYQANGEVFGDALDIQNTGNQTYEYNKAVYQNFDDADTRKEATFIASYNKDGKTGELSLYGTHVRKNIGYVNAQGARVYCGDYIFYRLPWVYLTLAEIANMEGDNAAVAKYINLVRKRAYGNAWDETLYAYPETADFTTNELAILHEKDKEFIQEGQRWWDLRRMTLTKGGTPLVFCKEGSLLGDAPILNKSTEAHKLLWPIEKTMLNKDPALEQTPGYK”, with “not failed”.

As for “MAKSGSLSIRVVEGRALPAKDVSGSSDPYCLVKVDDEVVARTATIWRSLSPFWGEEYTVHLPLDFHHLAFYVLDEDTVGHDDIIGKISLSKEAITADPRGIDSWINLSRVDPDEEVQGEVCLAVKLLEDARGRCLRCHVRQARDLAPRDISGTSDPFARVFWGSRSLETSTIKKTRFPHWDEVLELREAPGTTSPLRVELWDWDMVGKNDFLGMVEFTPQTLQQKPPNGWFRLLPFPRAEDSGGSLGALRLKVRLTEDRVLPSQYYQPLMELLLESVQGPAEEDTTSPLALLEELASGDCRQDLATKLVKLFLGRGLAGPFLDYLTRREVARTNDPNTLFRSNSLASKSMEQFMKLVGMRYLHEVLRPVISRVFEEKKYMELDPSKMDLNRSRRISFKGTPTEEQVRETSLGLLTGYLGSVVDAIVSSAGRCPLALRLAFKQLQQCVEKRFPGMEHQVGWVLRGLMRIRLKAPCVQCSRCIDXRNRIWGHRRCLPHGELGLLSPLLQAVQSIGNLGQQLGQGKEQWLAPLHPFLLQSISRVRDFLDQLVDVDGDEEAGFPLTKLMECRGVTKEGRVGXGRWSTSXFPAFRRERQERPGGLCCSERSAAWSWRLRLTGRDIAGLTGQWHAVPGRPQVHSSIPLSCIRAVERVDEGAFQLPHVMQVVTQDGTGASHTTYLQCKNVNDLNQWLSALRKASAPNPGKLAACHPGAFRSGRWTCCLQAERSAALSFHLGVLCNLEHVTXFLCASVFSSGKWSSPLDPKAGGAALYLRNQFCLSLSTLRLKLLEDSSLDTAPDVDPGKDSSAVDGPCAEVLAQQREATTRLLQVLEDLEQAHEEFQKRG”, the protein production result was “failed”. Then “MSPMAPVARAKRKFILLLIKPSHYDDDGYVLRWWRGIIPSNSLATLYGIAADVAARQVLGADVEFEIEAMDEFNTRIDIPALLDRFARNGNFGLVGLVGVQSNQYPRALDIARPFRASGVPVVMGGFHVSGCLAMLDGKAIGLDDCRDMGVAMFAGEAEGGRFDGVLQDAAAGQLQPVYNFLNDLPGIEGVPAPYLPLATVKRTLGLSTSVDAGRGCPYQCSFCTIINVQGRKSRYRTPDDIEAMVRRNWAQGISKYFITDDNFARNKDWEAILDRLIQIRETEDIPLGFMIQVDTLCHKIPRFIEKAKRAGVTRVFIGLENINPANLLTANKRQNKITEYRAMLLAWKDHGIITLAGYILGFPADTPASIRADIDIIKRELPIDVMEFFCLTPLPGSEDHQTLWRAGVAMDPDLNNYDVEHVCTAHPLMSRPEWEAIYREAWSRYYTPDHIETLLRRAAATGIKISSLVKLLAIFSTAIRVENVHPLQCGLFRQRHPSERRPGLAAPNALLFWPRFALDSVRKTGVILAAFAKVAAIGVRVARDPQRLAYTDQALTPVSDDDADSLDLFTQSASAKQAVAHQKKVFDLTHGTP”, with “failed”; and “MSYLLRSDPVSRIHPEPQSLTSFDHFDLLPDSLLLLIFDKVADVKDLGRCCIVSRRFHSLVPFVENVLVRVDCVISDDDSSSSDENHRFSLNTASISDAGGAGGSFSALFRLVFAPIFKPFQMLGQILGPKRSSSSFDASFSAINDEIGVTHHSPTQVLKNFGEIRFLKIELPTGELGIEDGILLKWRADFGSTLDNCMILGASSVIQSNSVKNHENSVDEDNGNIPESFYTNGGLKLRVVWTISSLIAASARHYLLQPIINEHKSLDRLVLSDADGQGVLCMNREQLEELRVTPLSASSASKRTLVPALNMRLWYAPELDLPDGTVLKGATLVAIRPSESKKEVCDASWLSDAFEEPFGTVAKMLIKRRTYCLEMNSF”, with “failed”. As for “WLDLAPSTQVDTETSINVLSDIEFTLNGIYSTMQSSDAYSGRLVYYGDVTGDDMQAVSSTKRTGNYYRFNFTKDNGPSSHWSYLYSIIQNCNLILMNVDKLSIDEDETEYKNDLKGQALAIRGMALFDLTRIFGYPYLKDNGASLGVPIVKELSTIDSKPARNTVAECYTEIISDLKNSTELLSGDFNKGKVNRWAAMTLLSRVYLYKGEYNEALTMAENAIKGAEKEGYALWTNEEYPTAWGNDASASNPGEILFEIVNLTTDSPGKESMGYLNSYNGYDDMCITCSFYQLLKKDPKDVRLKILSFDKKYYAYVNKYQPQQGENITDANIPLIRLSEAYLNAAEAAVQTGDNAKAVKYLNSIVQRANPENSVEGKTLTLENVLDERRKELVAEGHRMYDVIRNGMTVKRIDVKDSDINKTKHNTAYMEYDWNFHKILLPIPKKEMDANPNMKQNPGYVD”, the protein production result is “not failed”. As for “MEDEPGSENEADTIVASPLAKWRIEFSKSFQNYLDRSAPNIVRRWLVTLVAAVIYIYRVYSVYGYFVISYGLATYILNLLIGFLSPKVDPELEALDPDSLPVDESDEYKPFVRRLPEFKFWYAATKAFVVAFVMTFFSFLDVPVFWPILLCYWLVLYSLTMKRLIVHMFKYRYFPFDVRKPVKLLKFLVNSVLTFLRLKKQIQIGHHTRRTVWTRVYLLDFLDIGLANIHRVYAQLHLQQQQNIVKDIAMRDYWRDSIRQFPRKYLFITYQRFDEKSFLVSANHPKSAMEATTRILSTSSALNRLLLLSKLNLKSDPRNINSTNQLLHNAVTRKSSISAARIRCSSLPANANLFRSLFFLTSTFRLENTAVHANPFRSEPNDGVAVWNRAPRIVNGGGNAAIFGGNEGKETTVVLLGWLGAKAKHLRRYVEWYNSRGINAVTFTVDVRDLLRLDLGRRLERRIAEFGNELVNWVSEKEDDGREKCLVFHSFSNTGWLVYGALLESFIGRQDLVERIKGCIIDSGGADPLDTKVCSLFHVTKSFKCYSMVSPLLQDLVLEVEMSILL”, the protein production result is on record as “failed”. With “MVKNGRDPPERNFYCTEKEETAPPLMNIFDDFKSQIEREIMTIFLKTAYESLLSIAISTEIIVPEDETRSLEKEVIKLMKLMKLMNLLEPLGNRVSRLMGLVRNAEEHRERIVKRNQESDVREIFKIAASRTKTRFHKALQKESSSSSMKWGFTEAKDEVLSLGIRLTHALIKLTLLRVKKNDREKQLLLRDWIFDESYEKQSALMYLLDYLLYKAEEFAASVVVEESGNDHHRQHILEEDRIGDDILTRISEAIFILQLLAMNLSRNVLTERDLIATNDQLLRCVRDVKFVESTIVVLMKGRSLKLKHKGKQSLLMKERTETIFWAKVNAELNKCWGESFWKYVEAARHLEAVVSSQQIVYTLCKLFVFGFES”, the protein production result was “failed”. In the case of “SLANIREIAKRAGISIATVSRHLNNTGYVSEDAREKIQKVVDELNYTPNALARAMFTKNSKTIGLMVPNISNPFFNQMASVIEEYAKNKGYTLFLCNTDDDKEKEKTYLEVLQSHRVAGIIASRSQCEDEYANIDIPVVAFENHILDNIITISSDNYNGGRMAFDHLYEKGCRKILHIKGPEVFEATELRYKGFLDGARAKDLEIDFIEFQHDFQVKMLEEDINSMKDIVNYDGIFVFNDIAAATVMRALKKRGVSIPQEVQIIGFDNSFIGELLYPSLTTINQPIEALAYTIIELLIKIINGEGVLIEDYIMEVKLIERETTISLKDEG”, the protein production result is on record as “not failed”. Consider “MRVDRSSSSSTVSLLEGKIYVAGGFDPKTHTWSSVTSPSAVIRNESVAEHKSLGLGGKFYLFGYDSDKSAVVYNPKEDNVLFYRFHGLFHWYDYKGNFWKQVNGLGPVACTEKVAILAALDTFDNAR”, for which the protein production result is on record as “failed”. Then “MPSSSASLIPSLRQASRQMVRELGFMQATLAATDYPPSAVHALLEIGQGNALTAGDLVTLLGLEKSSVSRLVRKLVDAGEISEQAHDQDARSKKLQLSARGRQTLAGIDRFAQAQVAAALAHLSPAQQRSACAGIADYARALRAVRLGDVPEPPERCSIARGYRPGVIGRIAEMHARYYADLAGFGQPFESLVARDMAELMGRLHNPRNEVWVALQGERIVGSIAIDGEGEGGEALLRCFILDEAARGQGLGRRLLAEALGFCDQWGFAATRLWTFKGLDAARALYEEQGFVLVQEQEGEQWGAPVTEQCFVRARVAQRDTIR”, with “failed”. As to “YRYDEQLNLCLERLSSGKDKNKSVLQNKYVRCSVRAEVRHLRRVLCHRLMLNPQHVQLLFDNEVLPDHMTMKQIWLSRWFGKPSPLLLQYS”, the protein production entry is on record as “failed”. On to “MNAHRAQLISLARPVYFSLLASVAAGIINTVWVSRLGGPAVAAVAVATNTENVLLGVALVFASGTTVLVAHARGAQDPGAVRAAVRGGWALCAVVTPVVAGCGYLLREPLARLVLGGEGPALPLAVGYFAISLPGITVFYAQNLVDGILKGAGDTRTPMRLALLANGLILALDPLLIHRYGVRGAAVSTVLCRCAALGVGLLALRRNALLRGAAAVRPAEATGAALRRTLSTGLPMSADFTVRQGGALVLVAIVARLGVTAVAAYSIAYKVMYVATMAFYAVRQAASIHTAHTRGADRRASSRSAGAGSGGERRAIGRQAVVVSGTVGLLASALLCVLAPWVMRAFGAGPEVAHQGVLFLRCVGPYLLLMACFIALGGVFEGSGGAPVLLRVTLLGTAVQLPLAYALSGLGLPGICLALALAMVVQCAALLPGVRRQEDARDSLVRVA”, for which the protein production result is given as “failed”.

With “MRIFGKARHRPSASWRQATDRAFTLIGDGRYEDAGALLTRAADLEPWLSESWFNLALLHKFRHDWEQARAAGLRAVALLDRDIGAPDWWNVGIAATALQDWPLARRAWQAYGLRTPGGATDAGEPLGMDLGSAAVRLSPEGEAEVVWGRRLDPARVEVLSIPLPSSGRRWGEVVLHDGVPHGERTTSAGHSYPVFDEIELWAPSPVPTWVVLLEAATESDRDALEQLAADAGFAAEDWSSSVRLLCRMCSESRMPSDEGDGEHLDPHDHSEPGHPGPLGHRTDGQLWVPERECGVAAPAGLVKGLLDGWVADSPDSRDWRDLEEVC”, the protein production result is “failed”.

Take “MTVAQQAPSALNFDCETGNYHTFCPISCVSWLYQKIEDSFFLVIGTKTCGYFLQNAMGVMIFAEPRYAMAELEEGDISAQLKDYEELKRLCLQIKRDRNPSVIVWIGTCTTEIIKMDLEGLAPQLEAEIGIPIVTARANGLDYAFTQGEDTVLASMAHKCPTSAQVQGEDKEERNAIQKLLTFGRKADQEKVESEYVDHQPLVLFGSLPDPVVTNLTLELKKQGVKVSGWLPAKRYTELPVIDEGYYVAGVNPFLSRTATTLMRRRKCKLIGAPFPIGPDGTRAWIEKICSVLGIEPQGLEEREAQIWASLEDYIQLIRGKSVFFMGDNLLEVSLARFLIRCGMTCPEIGIPYMDKRYQAAELALLEKTCSDMGVPLPNIVEKPDNYNQIQRIKALQPDLVITGMAHANPLEAQGINTKWSVEFTFAQIHGFTNARDILELATRPLRRNSQLGELGWDKLIAKDVPAQV”: the protein production result is on record as “failed”. Take “MQTFFQDTMATPLGELLIIADENNHLRAVEWREYEDGLFRSLNRSYRNDPFSLQSRHNPGGLTDSLQRYFDGELAIIDTLPVASVGTEFQQQVWRELRRIPCGEITTYGELATLLGRTGAARAVGMANGSNPISIVVPCHRVIGTGGALTGYAGGIHRKQWLLAHEGYLPHQNSLPL”: the protein production result is “failed”.

Source of the values: a protein production outcome set (Wang et al. 2014).
